According to the supplement of paper PMC10567573:

B1: TRIM63 (parent)
chain: ANPYWTSRGSSVSMSGGRFRCPTC
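Also: lentivirally expressed fusions sorted by FACS into six bins by GFP to DsRed ratio, PSI derived from sequencing read proportions per bin multiplied by bin number.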

Variants of: B1
Assay: protein stability index of a GFP-peptide fusion (GPS, HEK-293T) (PSI 1-6); higher = more stable
Conditions: c terminus: a fixed tail appended
In the case of ANPYSTSRGSSVSMSGGRFRCPTC [W5S], the protein stability index is reported as 1.9.
For ANPYTTSRGSSVSMSGGRFRCPTC [W5T], the protein stability index was 1.76.
For ANPYVTSRGSSVSMSGGRFRCPTC [W5V], the protein stability index was 2.59.
With ANPYYTSRGSSVSMSGGRFRCPTC [W5Y] the protein stability index was 1.7.
In the case of ANPYWASRGSSVSMSGGRFRCPTC [T6A], the protein stability index is reported as 2.1.
Variant ANPYWCSRGSSVSMSGGRFRCPTC [T6C] has a protein stability index of 1.58.
ANPYWDSRGSSVSMSGGRFRCPTC [T6D] gave a protein stability index of 1.83.
With ANPYWESRGSSVSMSGGRFRCPTC [T6E] the protein stability index was 1.51.
Variant ANPYWGSRGSSVSMSGGRFRCPTC [T6G] has a protein stability index of 2.44.
Work on ANPYWHSRGSSVSMSGGRFRCPTC [T6H] yielded a protein stability index of 2.12.
Variant ANPYWISRGSSVSMSGGRFRCPTC [T6I] has a protein stability index of 1.84.
In the case of ANPYWKSRGSSVSMSGGRFRCPTC [T6K], the protein stability index is reported as 1.56.
With ANPYWMSRGSSVSMSGGRFRCPTC [T6M] the protein stability index was 2.24.
Work on ANPYWNSRGSSVSMSGGRFRCPTC [T6N] yielded a protein stability index of 1.74.
In the case of ANPYWPSRGSSVSMSGGRFRCPTC [T6P], the protein stability index is reported as 1.66.
ANPYWQSRGSSVSMSGGRFRCPTC [T6Q] gave a protein stability index of 3.06.
Variant ANPYWRSRGSSVSMSGGRFRCPTC [T6R] has a protein stability index of 2.2.
Variant ANPYWSSRGSSVSMSGGRFRCPTC [T6S] has a protein stability index of 1.45.
In the case of ANPYWWSRGSSVSMSGGRFRCPTC [T6W], the protein stability index is reported as 1.48.
In the case of ANPYWYSRGSSVSMSGGRFRCPTC [T6Y], the protein stability index is reported as 1.69.
ANPYWTARGSSVSMSGGRFRCPTC [S7A] showed a protein stability index of 2.41.
ANPYWTDRGSSVSMSGGRFRCPTC [S7D] gave a protein stability index of 2.38.
ANPYWTERGSSVSMSGGRFRCPTC [S7E] showed a protein stability index of 1.28.
In the case of ANPYWTFRGSSVSMSGGRFRCPTC [S7F], the protein stability index is reported as 2.07.
ANPYWTHRGSSVSMSGGRFRCPTC [S7H] showed a protein stability index of 1.45.
With ANPYWTIRGSSVSMSGGRFRCPTC [S7I] the protein stability index was 3.16.
ANPYWTLRGSSVSMSGGRFRCPTC [S7L] showed a protein stability index of 1.6.
ANPYWTMRGSSVSMSGGRFRCPTC [S7M] showed a protein stability index of 2.53.
ANPYWTNRGSSVSMSGGRFRCPTC [S7N] gave a protein stability index of 1.37.
ANPYWTPRGSSVSMSGGRFRCPTC [S7P] gave a protein stability index of 1.27.
In the case of ANPYWTQRGSSVSMSGGRFRCPTC [S7Q], the protein stability index is reported as 2.29.
ANPYWTTRGSSVSMSGGRFRCPTC [S7T] showed a protein stability index of 1.58.
ANPYWTVRGSSVSMSGGRFRCPTC [S7V] gave a protein stability index of 1.93.
ANPYWTWRGSSVSMSGGRFRCPTC [S7W] gave a protein stability index of 2.62.
Variant ANPYWTYRGSSVSMSGGRFRCPTC [S7Y] has a protein stability index of 1.54.
ANPYWTSAGSSVSMSGGRFRCPTC [R8A] gave a protein stability index of 1.85.
Work on ANPYWTSCGSSVSMSGGRFRCPTC [R8C] yielded a protein stability index of 1.23.
Work on ANPYWTSDGSSVSMSGGRFRCPTC [R8D] yielded a protein stability index of 1.91.
ANPYWTSEGSSVSMSGGRFRCPTC [R8E] gave a protein stability index of 3.19.
Variant ANPYWTSFGSSVSMSGGRFRCPTC [R8F] has a protein stability index of 1.27.
With ANPYWTSGGSSVSMSGGRFRCPTC [R8G] the protein stability index was 1.55.
ANPYWTSHGSSVSMSGGRFRCPTC [R8H] gave a protein stability index of 1.41.
Variant ANPYWTSIGSSVSMSGGRFRCPTC [R8I] has a protein stability index of 1.4.
In the case of ANPYWTSKGSSVSMSGGRFRCPTC [R8K], the protein stability index is reported as 1.95.
Work on ANPYWTSLGSSVSMSGGRFRCPTC [R8L] yielded a protein stability index of 2.33.
With ANPYWTSMGSSVSMSGGRFRCPTC [R8M] the protein stability index was 1.39.
In the case of ANPYWTSNGSSVSMSGGRFRCPTC [R8N], the protein stability index is reported as 1.92.
ANPYWTSPGSSVSMSGGRFRCPTC [R8P] gave a protein stability index of 1.55.
For ANPYWTSQGSSVSMSGGRFRCPTC [R8Q], the protein stability index was 1.99.
In the case of ANPYWTSSGSSVSMSGGRFRCPTC [R8S], the protein stability index is reported as 1.65.
In the case of ANPYWTSTGSSVSMSGGRFRCPTC [R8T], the protein stability index is reported as 1.8.
Work on ANPYWTSVGSSVSMSGGRFRCPTC [R8V] yielded a protein stability index of 1.95.
Variant ANPYWTSYGSSVSMSGGRFRCPTC [R8Y] has a protein stability index of 1.71.
For ANPYWTSRASSVSMSGGRFRCPTC [G9A], the protein stability index was 1.7.
With ANPYWTSRDSSVSMSGGRFRCPTC [G9D] the protein stability index was 1.94.
Variant ANPYWTSRESSVSMSGGRFRCPTC [G9E] has a protein stability index of 1.6.
Variant ANPYWTSRFSSVSMSGGRFRCPTC [G9F] has a protein stability index of 1.92.
Work on ANPYWTSRHSSVSMSGGRFRCPTC [G9H] yielded a protein stability index of 1.31.
Variant ANPYWTSRISSVSMSGGRFRCPTC [G9I] has a protein stability index of 1.39.
ANPYWTSRKSSVSMSGGRFRCPTC [G9K] showed a protein stability index of 1.98.
ANPYWTSRLSSVSMSGGRFRCPTC [G9L] gave a protein stability index of 1.56.
Variant ANPYWTSRMSSVSMSGGRFRCPTC [G9M] has a protein stability index of 1.39.
For ANPYWTSRNSSVSMSGGRFRCPTC [G9N], the protein stability index was 2.13.
With ANPYWTSRPSSVSMSGGRFRCPTC [G9P] the protein stability index was 1.76.
With ANPYWTSRQSSVSMSGGRFRCPTC [G9Q] the protein stability index was 1.3.
Work on ANPYWTSRRSSVSMSGGRFRCPTC [G9R] yielded a protein stability index of 2.15.
Variant ANPYWTSRSSSVSMSGGRFRCPTC [G9S] has a protein stability index of 1.9.
Variant ANPYWTSRVSSVSMSGGRFRCPTC [G9V] has a protein stability index of 1.91.
For ANPYWTSRWSSVSMSGGRFRCPTC [G9W], the protein stability index was 1.43.
With ANPYWTSRYSSVSMSGGRFRCPTC [G9Y] the protein stability index was 2.32.
Work on ANPYWTSRGASVSMSGGRFRCPTC [S10A] yielded a protein stability index of 1.68.
For ANPYWTSRGCSVSMSGGRFRCPTC [S10C], the protein stability index was 2.18.
Variant ANPYWTSRGESVSMSGGRFRCPTC [S10E] has a protein stability index of 1.76.
In the case of ANPYWTSRGFSVSMSGGRFRCPTC [S10F], the protein stability index is reported as 2.56.
ANPYWTSRGHSVSMSGGRFRCPTC [S10H] gave a protein stability index of 2.44.
Work on ANPYWTSRGKSVSMSGGRFRCPTC [S10K] yielded a protein stability index of 1.65.
For ANPYWTSRGLSVSMSGGRFRCPTC [S10L], the protein stability index was 1.46.
ANPYWTSRGMSVSMSGGRFRCPTC [S10M] showed a protein stability index of 1.84.
With ANPYWTSRGPSVSMSGGRFRCPTC [S10P] the protein stability index was 1.75.
In the case of ANPYWTSRGQSVSMSGGRFRCPTC [S10Q], the protein stability index is reported as 2.83.
In the case of ANPYWTSRGTSVSMSGGRFRCPTC [S10T], the protein stability index is reported as 2.24.
Variant ANPYWTSRGVSVSMSGGRFRCPTC [S10V] has a protein stability index of 1.72.
With ANPYWTSRGWSVSMSGGRFRCPTC [S10W] the protein stability index was 3.35.
Work on ANPYWTSRGYSVSMSGGRFRCPTC [S10Y] yielded a protein stability index of 1.57.
With ANPYWTSRGSAVSMSGGRFRCPTC [S11A] the protein stability index was 2.3.
In the case of ANPYWTSRGSCVSMSGGRFRCPTC [S11C], the protein stability index is reported as 1.88.
Work on ANPYWTSRGSDVSMSGGRFRCPTC [S11D] yielded a protein stability index of 2.08.
Variant ANPYWTSRGSEVSMSGGRFRCPTC [S11E] has a protein stability index of 1.76.
ANPYWTSRGSFVSMSGGRFRCPTC [S11F] gave a protein stability index of 2.15.
In the case of ANPYWTSRGSHVSMSGGRFRCPTC [S11H], the protein stability index is reported as 2.68.
Variant ANPYWTSRGSIVSMSGGRFRCPTC [S11I] has a protein stability index of 3.32.
In the case of ANPYWTSRGSKVSMSGGRFRCPTC [S11K], the protein stability index is reported as 1.29.
ANPYWTSRGSLVSMSGGRFRCPTC [S11L] showed a protein stability index of 1.1.
Variant ANPYWTSRGSMVSMSGGRFRCPTC [S11M] has a protein stability index of 1.63.
